Assay results: US20150050670A1
Each block holds one binder with its values, some of them ahead of it.

How the values were obtained:
Settings in all cases: chains Vgamma:Vdelta
peptide on (human) [1] = experiment: IFNγ ELISA, CD4+ transduced T-cells against Daudi, pamidronate titration; against γ9-G115wt/δ2-G115wt (max. 800 pg/ml); full-length, on cells
peptide on (human) [2] = experiment: IFNγ ELISA, CD4+ transduced T-cells against Daudi, pamidronate titration; full-length, on cells; parameters: unit not given here
peptide on (human) [3] = experiment: IFNγ ELISA, CD4+ transduced T-cells against Daudi, pamidronate titration; against γ9-G115wt/δ2-G115wt (max. 800 pg/ml); the clone number is missing in the printed name; full-length, on cells

maximal IFNγ secretion (peptide on (human) [1]): 600 µg/mL
EC50 of pamidronate (peptide on (human) [2]): 30
B1: γ9-cl3wt/δ2-cl3wt (protein)
chain 1: AGHLEQPQISSTKTLSKTARLECVVSGITISATSVYWYRERPGEVIQFLVSISYDGTVRKESGIPSGKFEVDRIPETSTSTLTIHNVEKQDIATYYCALWEEELGKKIKVFGPGTKLIIT
chain 2: AIELVPEHQTVPVSIGVPATLRCSMKGEAIGNYYINWYRKTQGNTMTFIYREKDIYGPGFKDNFQGDIDIAKNLAVLKILAPSERDEGSYYCACDLLGYTDKLIFGKGTRVTVEP

maximal IFNγ secretion (peptide on (human) [3]): 100 pg/mL
B2: γ9-cl3wt/δ2-G115wt (protein)
chain 1: B1 chain 1
chain 2: AIELVPEHQTVPVSIGVPATLRCSMKGEAIGNYYINWYRKTQGNTMTFIYREKDIYGPGFKDNFQGDIDIAKNLAVLKILAPSERDEGSYYCACDTLGMGGEYTDKLIFGKGTRVTVEP
